# The supplement of paper PMC10567573
# B1: TAF7L (parent)
# chain: PDVENEVKRLLRSDAEAVSTRWEV
# Variants of: B1
# Test: protein stability index of a GFP-peptide fusion (GPS, HEK-293T) (PSI 1-6); higher = more stable
# Settings: c terminus: a fixed tail appended
# 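Further: lentivirally expressed fusions sorted by FACS into six bins by GFP to DsRed ratio, PSI derived from sequencing read proportions per bin multiplied by bin number.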
row,Variant,protein stability index
1,PDVENEVKHLLRSDAEAVSTRWEV [R9H],4.05
2,PDVENEVKDLLRSDAEAVSTRWEV [R9D],4.41
3,PDVENEVKGLLRSDAEAVSTRWEV [R9G],3.57
4,PDVENEVKMLLRSDAEAVSTRWEV [R9M],3.96
5,PDVENEVKCLLRSDAEAVSTRWEV [R9C],3.39
6,PDVENEVKTLLRSDAEAVSTRWEV [R9T],3.44
7,PDVENEVKPLLRSDAEAVSTRWEV [R9P],4.17
8,PDVENEVKKLLRSDAEAVSTRWEV [R9K],4.02
9,PDVENEVKYLLRSDAEAVSTRWEV [R9Y],2.41
10,PDVENEVKQLLRSDAEAVSTRWEV [R9Q],3.83
11,PDVENEVKNLLRSDAEAVSTRWEV [R9N],3.66
12,PDVENEVKLLLRSDAEAVSTRWEV [R9L],3.29
13,PDVENEVKFLLRSDAEAVSTRWEV [R9F],2.69
14,PDVENEVKRLLRSWAEAVSTRWEV [D14W],1.48
15,PDVENEVKRLLRSMAEAVSTRWEV [D14M],3.06
16,PDVENEVKRLLRSTAEAVSTRWEV [D14T],2.12
17,PDVENEVKRLLRSSAEAVSTRWEV [D14S],2.26
18,PDVENEVKRLLRSRAEAVSTRWEV [D14R],2.38
19,PDVENEVKRLLRSLAEAVSTRWEV [D14L],1.77
20,PDVENEVKRLLRSAAEAVSTRWEV [D14A],1.97
21,PDVENEVKRLLRSYAEAVSTRWEV [D14Y],1.45
22,PDVENEVKRLLRSPAEAVSTRWEV [D14P],2.13
23,PDVENEVKRLLRSHAEAVSTRWEV [D14H],3.25
24,PDVENEVKRLLRSNAEAVSTRWEV [D14N],2.75

row,Variant,protein stability index
1,PDVENEVKRLLKSDAEAVSTRWEV [R12K],4.19
2,PDVENEVKRLLWSDAEAVSTRWEV [R12W],2.33
3,PDVENEVKRLLSSDAEAVSTRWEV [R12S],3.75
4,PDVENEVKRLLASDAEAVSTRWEV [R12A],3.5
5,PDVENEVKRLLNSDAEAVSTRWEV [R12N],3.87
6,PDVENEVKRLLFSDAEAVSTRWEV [R12F],2.88
7,PDVENEVKRLLESDAEAVSTRWEV [R12E],4.54
8,PDVENEVKRLLHSDAEAVSTRWEV [R12H],4.38
9,PDVENEVKRLLCSDAEAVSTRWEV [R12C],2.99
10,PDVENEVKRLLPSDAEAVSTRWEV [R12P],4.61
11,PDVENEVKRLLDSDAEAVSTRWEV [R12D],4
12,PDVENEVKRLLVSDAEAVSTRWEV [R12V],2.96
13,PDVENEVKRLLYSDAEAVSTRWEV [R12Y],3.96
14,PDVENEVFRLLRSDAEAVSTRWEV [K8F],2.2
15,PDVENEVERLLRSDAEAVSTRWEV [K8E],3.6
16,PDVENEVIRLLRSDAEAVSTRWEV [K8I],2.51
17,PDVENEVHRLLRSDAEAVSTRWEV [K8H],4.25
18,PDVENEVQRLLRSDAEAVSTRWEV [K8Q],3.34
19,PDVENEVVRLLRSDAEAVSTRWEV [K8V],3.44
20,PDVENEVMRLLRSDAEAVSTRWEV [K8M],2.78
21,PDVENEVWRLLRSDAEAVSTRWEV [K8W],2.19
22,PDVENEVNRLLRSDAEAVSTRWEV [K8N],3.08
23,PDVENEVCRLLRSDAEAVSTRWEV [K8C],3.23
24,PDVENEVPRLLRSDAEAVSTRWEV [K8P],4.16

row,Variant,protein stability index
1,PDVENEVYRLLRSDAEAVSTRWEV [K8Y],2.23
2,PDVENEVKRLKRSDAEAVSTRWEV [L11K],4.37
3,PDVENEVKRLARSDAEAVSTRWEV [L11A],4.29
4,PDVENEVKRLTRSDAEAVSTRWEV [L11T],4.11
5,PDVENEVKRLSRSDAEAVSTRWEV [L11S],3.53
6,PDVENEVKRLERSDAEAVSTRWEV [L11E],5.07
7,PDVENEVKRLCRSDAEAVSTRWEV [L11C],3.25
8,PDVENEVKRLRRSDAEAVSTRWEV [L11R],4.2
9,PDVENEVKRLDRSDAEAVSTRWEV [L11D],4.9
10,PDVENEVKRLNRSDAEAVSTRWEV [L11N],4.79
11,PDVENEVKRLMRSDAEAVSTRWEV [L11M],3.14
12,PDVENEVKRLPRSDAEAVSTRWEV [L11P],4.74
13,PDVENEVKRLQRSDAEAVSTRWEV [L11Q],4.35
14,PDVENEPKRLLRSDAEAVSTRWEV [V7P],4.57
15,PDVENESKRLLRSDAEAVSTRWEV [V7S],3.56
16,PDVENETKRLLRSDAEAVSTRWEV [V7T],4.13
17,PDVENECKRLLRSDAEAVSTRWEV [V7C],3.07
18,PDVENEYKRLLRSDAEAVSTRWEV [V7Y],3.31
19,PDVENEKKRLLRSDAEAVSTRWEV [V7K],4.23
20,PDVENEGKRLLRSDAEAVSTRWEV [V7G],4.2
21,PDVENEHKRLLRSDAEAVSTRWEV [V7H],4.06
22,PDVENEQKRLLRSDAEAVSTRWEV [V7Q],3.68
23,PDVENEMKRLLRSDAEAVSTRWEV [V7M],3.47
24,PDVENEWKRLLRSDAEAVSTRWEV [V7W],3.13

row,Variant,protein stability index
1,PDVENEIKRLLRSDAEAVSTRWEV [V7I],2.73
2,PDVENENKRLLRSDAEAVSTRWEV [V7N],2.94
3,PDVENEVKRTLRSDAEAVSTRWEV [L10T],4.36
4,PDVENEVKRFLRSDAEAVSTRWEV [L10F],3.42
5,PDVENEVKRHLRSDAEAVSTRWEV [L10H],3.82
6,PDVENEVKRWLRSDAEAVSTRWEV [L10W],2.86
7,PDVENEVKRQLRSDAEAVSTRWEV [L10Q],3.25
8,PDVENEVKRKLRSDAEAVSTRWEV [L10K],3.8
9,PDVENRVKRLLRSDAEAVSTRWEV [E6R],3.65
10,PDVENSVKRLLRSDAEAVSTRWEV [E6S],3.21
11,PDVENEVKRLLRMDAEAVSTRWEV [S13M],3.54
12,PDVENEVKRLLRHDAEAVSTRWEV [S13H],2.53
13,PDVENEVKRLLRIDAEAVSTRWEV [S13I],3.29
14,PDVENEVKRLLRKDAEAVSTRWEV [S13K],3.76
15,PDVENEVKRLLRPDAEAVSTRWEV [S13P],4.71
16,PDVENEVKRLLREDAEAVSTRWEV [S13E],4.19
17,PDVENEVKRLLRQDAEAVSTRWEV [S13Q],2.09
18,PDVENEVKRLLRYDAEAVSTRWEV [S13Y],2.87
19,PDVENEVKRLLRNDAEAVSTRWEV [S13N],3.53
20,PDVENEVKRLLRGDAEAVSTRWEV [S13G],3.02
21,PDVENEVKRLLRFDAEAVSTRWEV [S13F],1.9
22,PDVENEVKRLLRDDAEAVSTRWEV [S13D],4.14
